For data set [1], the system named is patients with cystic fibrosis. To be noted: cited from earlier work.
The nature of data set [2]: Gravimetric analysis of delivered dose per actuation. Format: physicochemical. The note with it: for total delivered dose per actuation: from gravimetric mass and solution concentration; for average mass ejected per dose (actuation), gravimetric: solution filled ampule weighed before and after dosing, average of five doses. As for the experimental part: Gravimetric analysis was performed by weighing the Enbrel solution filled ampule before and after dosing. The average of five doses (actuations) were analyzed with an average of 4.25 mg+/−0.15 mg. The total delivered dose of Enbrel per actuation is therefore […] per actuation.
Gravimetric analysis was performed by weighing the Insulin solution filled ampule before and after dosing. The average of five doses (actuations) were analyzed with an average of 5.01 mg+/−0.53 mg. The total delivered dose of Insulin per actuation is therefore 34.8 mcg per actuation.

Data set [3] is described as follows: Enbrel stability after aerosol generation, size exclusion chromatography. Format: physicochemical. To be noted: for Peak Area %, Peak 1 / Peak Area %, Peak 2 / Peak Area %, Peak 4 / Peak Area %, Peak 5: SEC UV 280 nm. From the text:
Alternately, to determine the stability of active agent after droplet generation, the generated stream of droplets including the active agent may be collected and […] may be employed to monitor for any changes in large molecule aggregation and protein fragment content. Soluble protein aggregates and protein fragment content may be calculated by comparing respective peak area under the SEC-HPLC curve of dispensed protein solutions with controls (solutions remaining in the device reservoir). Drug solutions for testing include Enbrel, (ENBREL® single-use prefilled syringes in 25 mg (0.51 mL of a 50 mg/mL solution of etanercept), and insulin, (Humalog, 200 units/ml, 3 ml […] is performed with a YarraTM 3 um SEC-2000 LC column 300×7.8 mm, SecurityGuard cartridge kit and SecurityGuard cartridges GFC-2000, 4×3 mm ID. Fifty microliters of Enbrel from the syringe (ENBREL® single-use prefilled syringes in 25 mg/0.51 mL of a 50 mg/mL solution of etanercept) is diluted (4:1) (4 parts, 200 mcl of the mobile phase buffer solution to 1 part, 50 mcl Enbrel from syringe). Fifty microliter of the diluted Enbrel is injected and separation was performed at a flow rate of 1.0 ml/min. The mobile phase buffer system included a PHOS. BUFF. SALINE. […] UV detection is performed at 280 nm. […] An ampule/cartridge is filled with either 0.20 ml of Enbrel® (50 mg/ml) diluted 4:1 (10 mg/ml)(4 parts (200 mcl) of PBS and 0.025% NaN3 and 1 part (50 mcl of Enbrel solution from the syringe). After 20 actuations and aerosolization, about 150 mcl of the aerosolized Enbrel solution is recovered and collected in the polypropylene tube located below the ejector mechanism. The control consists of the diluted Enbrel solution, 50 mcl of which is injected into the SEC column for analysis.
Background: Size exclusion chromatography separates by hydrodynamic size, large species first.

Data set [4] is described as follows: Gel electrophoresis of active agent after droplet generation. Format: physicochemical. From the text: Gel Electrophoresis: To determine the stability of active agent after droplet generation, the generated stream of droplets including the active agent is collected and the molecular weight of the active agent is verified using gel electrophoresis.
Data set [5] is described as follows: Insulin stability after aerosol generation, size exclusion chromatography. Format: physicochemical. From the text:
Alternately, to determine the stability of active agent after droplet generation, the generated stream of droplets including the active agent may be collected and SEC-HPLIC may be employed to monitor for any changes in large molecule aggregation and protein fragment content. Soluble protein aggregates and protein fragment content may be calculated by comparing respective peak area under the SEC-HPLC curve of dispensed protein solutions with controls (solutions remaining in the device reservoir).
Drug solutions for testing include Enbrel, (ENBREL® single-use prefilled syringes in 25 mg (0.51 mL of a 50 mg/mL solution of etanercept), and insulin, (Humalog, 200 units/ml, 3 ml kwikpens)
To calculate and compare effects of droplet generation through an ejector mechanism of the disclosure, the total area under the curve of the UV signal at 280 nm versus elution time for controls is compared with the aerosolized samples, which is set to 100%.
Aerosol collection and SEC is performed in a similar fashion as for the Enbrel analysis and aerosol collection.
Fifty microliters of the collected aerosol spray is injected onto the SEC column for analysis, while 50 mcl of the Kwikpen insulin solution is injected onto the SEC column for control samples.

The mark [6] stands for this setting: average of aerosolized S1 and S2.
Where [7] appears, read: control, Enbrel diluted 4:1 (10 mg/ml), not aerosolized.

Where “and” joins values, the source holds several entries; their conditions need not be identical. Identical values can stand only once.

Take `NC[C@H]1O[C@H](O[C@H]2[C@H](O)[C@@H](O[C@H]3O[C@H](CO)[C@@H](O)[C@H](N)[C@H]3O)[C@H](N)C[C@@H]2N)[C@H](N)C[C@@H]1O` [tobramycin]: the “effect on pulmonary function and kidney side effects” value in data set [1] (administration by inhalation) is “significantly improves pulmonary function without severe side effects to kidney functions”. Besides, the “toxicity of serum levels” value in data set [1] (intravenous administration) is “toxic to the kidneys”.

Enbrel: in data set [2], the “total delivered dose per actuation” value is 42.5 µg. The “average mass ejected per dose (actuation), gravimetric” value in data set [2] is reported as 4.25 mg. Besides, the “Peak Area %, Peak 1” value is 2.796% and 3.476% in data set [3] (aerosolized with test device, 20 actuations, ret time about 5.3 min); 2.428% and 3.041% in data set [3] (control, Enbrel diluted 4:1 (10 mg/ml), not aerosolized, ret time 4.3-5.3 min). Further, the “Peak Area %, Peak 2” value in data set [3] (aerosolized with test device, 20 actuations, ret time about 5.8 min) is 90.789% and 92.112%; in data set [3] (control, Enbrel diluted 4:1 (10 mg/ml), not aerosolized, ret time 4.8-5.8 min) it was 96.676% and 95.909%. Further, the “Peak Area %, Peak 4” value was 0.357% and 0.352% in data set [3] (aerosolized with test device, 20 actuations, ret time about 13 min); 0% in data set [3] (setting [7]). The “Peak Area %, Peak 5” value in data set [3] (aerosolized with test device, 20 actuations, ret time about 25 min) was 5.130% and 3.428% and 5.123%; in data set [3] (setting [7]), 0%. Besides, in data set [3] (setting [6]), the “Peak Area %, Peak 4, Avg.” value is listed as 0.3545. In data set [3] (setting [6]), the “Peak Area %, Peak 5, Avg.” value came out at 4.2755. Moreover, the “fraction of the dose forming molecular fragments” value in data set [3] (fragments with elution times of 13 and 25 minutes) stood at 4.6%. The “fraction structurally unchanged after delivering an aerosol dose” value in data set [3] (test device, SEC) worked out at 95.4%. Besides, the “change in electrophoretic mobility (molecular weight) of post-aerosol active agent versus control” value (“change in electrophoretic mobility” for short) in data set [4] is reported as “negligible change”.

With “Insulin: insulin, Humalog, 200 units/ml, 3 ml kwikpens”, in data set [2], the “total delivered dose per actuation” value is 34.8 µg and the “average mass ejected per dose (actuation), gravimetric” value is given as 5.01 mg. Further, in data set [5] (setting [6]), the “Peak Area %, Peak 3, Avg.” value is 2.4905. Further, the “Peak Area %, Peak 3” value in data set [5] (control, Kwikpen insulin solution 200 U/ml, not aerosolized) came out at 0%. In data set [5] (fragment eluting at ~25 minutes), the “fraction of the ejected dose forming a fragment” value is listed as 2.5%. Moreover, in data set [5] (test device, SEC), the “fraction of the ejected dose structurally unchanged” value stood at 97.5%.

Regarding adalimumab, the “change in electrophoretic mobility” value in data set [4] is listed as “negligible change”.

For bevacizumab: antibody (Avastin), in data set [4], the “change in electrophoretic mobility” value is on record as “negligible change”.

Source of the values: US11285284B2, “Methods for treatment of pulmonary lung diseases with improved therapeutic efficacy and improved dose efficiency” (PNEUMA RESPIRATORY, INC., priority 2016, dated 2022).
